Sequences and labels used below:
B1: Homeobox protein Meis2 (Homo sapiens), O14770-4 (parent)
chain: MAQRYDELPHYGGMDGVGVPASMYGDPHAPRPIPPVHHLNHGPPLHATQHYGAHAPHPNVMPASMGSAVNDALKRDKDAIYGHPLFPLLALVFEKCELATCTPREPGVAGGDVCSSDSFNEDIAVFAKQVRAEKPLFSSNPELDNLMIQAIQVLRFHLLELEKVHELCDNFCHRYISCLKGKMPIDLVIDERDGSSKSDHEELSGSSTNLADHNPSSWRDHDDATSTHSAGTPGPSSGGHASQSGDNSSEQGDGLDNSVASPGTGDDDDPDKDKKRQKKRGIFPKVATNIMRAWLFQHLTHPYPSEEQKKQLAQDTGLTILQVNNWFINARRRIVQPMIDQSNRAVSQGAAYSPEGQPMGSFVLDGQQHMGIRPAGLQSMPGDYVSQGGPMGMSMAQPSYTPPQMTPHPTQLRHGPPMHSYLPSHPHHPAMMMHGGPPTHPGMTMSAQSPTMLNSVDPNVGGQVMDIHAQ
partner: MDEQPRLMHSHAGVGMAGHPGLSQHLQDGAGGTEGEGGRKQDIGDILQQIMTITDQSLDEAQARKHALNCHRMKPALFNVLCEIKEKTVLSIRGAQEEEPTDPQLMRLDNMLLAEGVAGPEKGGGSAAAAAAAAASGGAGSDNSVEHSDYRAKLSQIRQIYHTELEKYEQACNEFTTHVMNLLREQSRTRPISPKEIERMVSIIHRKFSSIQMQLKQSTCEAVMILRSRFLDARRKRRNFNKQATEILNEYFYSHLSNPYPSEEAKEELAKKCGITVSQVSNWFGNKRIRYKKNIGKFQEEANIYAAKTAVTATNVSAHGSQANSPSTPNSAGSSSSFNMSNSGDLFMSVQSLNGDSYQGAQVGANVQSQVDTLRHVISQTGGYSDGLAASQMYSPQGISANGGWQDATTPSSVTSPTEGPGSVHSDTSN

In one test the parent is B1. To be noted: with pbx1_human PBX1, P40424.
In the case of L85A, the “effect of a mutation on the interaction” value was “decreasing interaction”.
As for L88A, the “effect of a mutation on the interaction” value is recorded as “decreasing interaction”.

Variants of B1 are the subject of another test. To be noted: with pbx1_human PBX1, P40424. This is another data set of the same source.
Turning to E160A, the “effect of a mutation on the interaction” value is “decreasing interaction”.
As for K163A, the “effect of a mutation on the interaction” value is reported as “decreasing interaction”.
Take E162A: the “effect of a mutation on the interaction” value is given as “decreasing interaction”.

In another test the parent is B1. Conditions: with pbx1_human PBX1, P40424. The source holds these as a separate data set.
Turning to L158A, the “effect of a mutation on the interaction” value is “decreasing interaction”.
For the variant L159A, the “effect of a mutation on the interaction” value is “decreasing interaction”.
On the same count and under the same terms, then L161A, with “decreasing interaction”.

The values above are taken from IntAct's records for PubMed 20553494.
